Series [1] concerns the molecule itself. The experiment in a line: SEC; purified homomeric 6×His-translin proteins on Superdex 200 10/300 GL calibrated with molecular weight markers (29-440 kDa); octamer. (In general: SEC sorts molecules by how far they enter the pores of the column.)
The target of series [2] is T1, translin (human, UniProt Q15631 1-228). The experiment in a line: UV-laser crosslinking (248 nm); 50 pmol each in 50 uL; 25 mM Tris-HCl pH 8.0, 100 mM NaCl, 1 mM EDTA, 30 min; temperature not stated; 4.5% native PAGE in 0.5x TBE. The settings on record: protein: recombinant; tags: N-terminal 6xHis; chain copies: 8; label: 5'-32P (unlabeled in agarose EMSA). On the technique in general: Mobility shift assays separate free from complexed probe on a gel.

Series [3] concerns the target T1, translin. The experiment in a line: EMSA; 50 nM octamer, 100 nM DNA; 25 mM Tris-HCl pH 8.0, 100 mM NaCl, 1 mM EDTA, 30 min; temperature not stated; 4.5% native PAGE in 0.5x TBE. The settings on record: protein: recombinant; tags: N-terminal 6xHis; chain copies: 8; label: 5'-32P (unlabeled in agarose EMSA).

B1: Mutant of basic-2 motif of human translin, homomeric, N-terminal 6×His tag (natural protein, UniProt Q15631 1-228, looked up)
chain: MSVSEIFVELQGFLAAEQDIREEIRKVVQSLEQTAREILTLLQGVHQGAGFQDIPKRCLKAREHFGTVKTHLTSLKTKFPAEQYYTFNENWRFVLQRLVFLAAFVVYLETETLVTREAVTEILGIEPDREKGFHLDVEDYLSGVLILASELSRLSVNSVTAGDYSRPLHISTFINELDSGFRLLNLKNDSLRKRYDGLKYDVKKVEEVVYDLSIRGFNKETAAACVEK
notes: human translin with the B2 motif mutated, expressed from pQE9-translinB2; also called translinB2; translinB2 mutant; source: E. coli BL21(DE3), pQE9-translinB2, purified (Ni-IDA, Q-sepharose, Superdex 200); not shown: 6×His, N-terminal, kept
For orientation: stoichiometry N means the number of molecules, sites or subunits per partner or assembly. In the case of B1, the “stoichiometry N” value in series [1] worked out at 8.

B2: Mutant of basic-3 motif of human translin, homomeric, N-terminal 6×His tag (natural protein, UniProt Q15631 1-228, looked up)
chain: MSVSEIFVELQGFLAAEQDIREEIRKVVQSLEQTAREILTLLQGVHQGAGFQDIPKRCLKAREHFGTVKTHLTSLKTKFPAEQYYRFHEHWRFVLQRLVFLAAFVVYLETETLVTREAVTEILGIEPDREKGFHLDVEDYLSGVLILASELSRLSVNSVTAGDYSRPLHISTFINELDSGFRLLNLKNDSLTNSNDGLKYDVKKVEEVVYDLSIRGFNKETAAACVEK
notes: human translin with the B3 motif mutated, expressed from pQE9-translinB3; also called translinB3; translinB3 mutant; source: E. coli BL21(DE3), pQE9-translinB3, purified (Ni-IDA, Q-sepharose, Superdex 200); not shown: 6×His, N-terminal, kept
With B2, the “stoichiometry N” value in series [1] is 8.

B3: Bcl-CL1 24-mer (ssDNA)
DNA: GCCCTCCTGCCCTCCTTCCGCGGG
With B3, the binding result in the series with translin [2] and with translin [3] was “binds” in each case.
